Laboratory results published in PMC12440816.

Legend:
[1] = target: MCM replicative helicase hexamer (Mcm2–7), loaded on DNA (Saccharomyces cerevisiae) (UniProt P29469)
[2] = target: MCM replicative helicase hexamer (Mcm2–7), loaded on DNA (Saccharomyces cerevisiae) (UniProt P29469); remark: listed apart in the source
[3] = target: Luc-MCM/Cdt1 (luciferase-tagged MCM in complex with Cdt1) [Saccharomyces cerevisiae]; assay: MCM recruitment assay (DNA pulldown, luciferase-tagged MCM) in ATPγS; settings: ARS1 origin, read off a plot

high-salt-resistant luciferase-tagged MCM on the 300 bp[lacO] template at 30 min, with IPTG against without IPTG (SHs loaded by Orc2∆N behind a LacI roadblock) [1] [fold] | high-salt-resistant luciferase-tagged MCM on the 300 bp[lacO] template, with IPTG against without IPTG, after free MCM–Cdt1 and Cdc6 were washed off [2] [fold] | response ([3]; + CDK (Orc2 phosphorylated)) [fmol] | response ([3]; - CDK (ORC not phosphorylated)) [fmol] | Substance
3.8 | 3.3 | – | – | MCM replicative helicase hexamer (Mcm2–7), loaded on DNA, P29469 1-868; P24279 1-971; P30665 1-933; P29496 1-775; P53091 1-1017; P38132 1-845
– | – | 230 | 250 | origin recognition complex (ORC), wild type mutant Orc6:S106A; Orc6:S116A; Orc6:S123A; Orc6:T146A [Saccharomyces cerevisiae] / Luc-MCM/Cdt1 (luciferase-tagged MCM in complex with Cdt1) [Saccharomyces cerevisiae] chain 6 S106A, chain 6 S116A, chain 6 S123A, chain 6 T146A
